US5547935A (Chiron Corporation, priority 1994, dated 1996)

Assays:
[1] = biological target: T1, EGF receptor on fixed A431 cells (Homo sapiens, UniProt P00533); experiment: Receptor affinity: binding to fixed A431 cells; conditions: 1 nM, 2 hr at 37° C.
T1 construct: Confluent A43 1 cells were fixed in 96-well microtiter plates using 0.05% formaldehyde; endogenous in cells; host or cells: A431 cells, formaldehyde-fixed
Procedure: Confluent A43 1 cells were fixed in 96-well microtiter plates using 0.05% formaldehyde for 10 min at room temperature, then washed 3× with 200 μL PBS with 0.1% bovine serum albumin (BSA).
The wells were then washed 3× with 200 μL of PBS/0.1% BSA, detached, and counted in a gamma counter.

[2] = system: Human foreskin fibroblasts; experiment: Mitogenicity: 3H-thymidine incorporation; assay type: cell-based
Procedure: Mitogenicity was assayed substantially following the method described by D. J. Knauer et al, J Biol Chem (1984) 259:5623-31.
Human foreskin fibroblasts were obtained and frozen at the thirteenth passage. Thawed cells are trypsinized, pelleted, and resuspended in a medium containing DMEM, 5% FBS, 1 mM sodium pyruvate, 300 μg/mL L-glutamine, 100 U/mL penicillin, and 100 μg/mL streptomycin. The cells are counted using a hemocytometer and 0.4% trypan blue. The cell concentration is adjusted to 1×10^-5 cells/mL using the same medium, and dispensed onto microtiter plates (100 μL/well). The plates are incubated for 5 days in a tissue culture incubator.
EGF muteins prepared in Example 1 and native sequence EGF are dissolved to make 100 μg/mL solutions. These solutions are used to make serial dilutions of 20, 10, 5, 2.5, 1.25, 0.625, 0.3125, 0.15625, 0.078125, 0.0390625, 0.0195, and 0.00975 ng/mL. Ten μL of each dilution is added to a microtiter plate well, and the plates returned to the incubator and incubated at 37° C. for 18 hours. […]
The well contents are then solubilized using 0.3 N NaOH (50 μL/well) for 30 minutes, and transferred to scintillation vials. Scintillation fluid (Ready-Solv EP, 4 mL) is then added to each vial, and the vials counted for 1 min with a 0-1,000 (^3 H) window in a Beckman LS3801 counter.

- Affinity [1]: 32 percentage of control (EGF)
B1: .phi.EFG: EGF with N-terminal flag extension, additional sequence DWKDDDDK (protein)
chain: DWKDDDDKPQHWSCPEGTLAGNGNSTCVGPAPFLIFSHGNSIFRIDTEGTNYEQLVVDAGVSVIMDFHYNEKRIYWVDLERQLLQRVFLNGSRQERVCNIEKNVSGMAINWINEEVIWSNQQEGIITVTDMKGNNSHILLSALKYPANVAVDPVERFIFWSSEVAGSLYRADLDGVGVKALLETSEKITAVSLDVLDKRLFWIQYNREGSNSLICSCDYDGGSVHISKHPTQHNLFAMSLFGDRIFYSTWKMKTIWIANKHTGKDMVRINLHSSFVPLGELKVVHPLAQPKAEDDTWEPEQKLCKLRKGNCSSTVCGQDLQSHLCMCAEGYALSRDRKYCEDVNECAFWNHGCTLGCKNTPGSYYCTCPVGFVLLPDGKRCHQLVSCPRNVSECSHDCVLTSEGPLCFCPEGSVLERDGKTCSGCSSPDNGGCSQLCVPLSPVSWECDCFPGYDLQLDEKSCAASGPQPFLLFANSQDIRHMHFDGTDYGTLLSQQMGMVYALDHDPVENKIYFAHTALKWIERANMDGSQRERLIEEGVDVPEGLAVDWIGRRFYWTDRGKSLIGRSDLNGKRSKIITKENISQPRGIAVHPMAKRLFWTDTGINPRIESSSLQGLGRLVIASSDLIWPSGITIDFLTDKLYWCDAKQSVIEMANLDGSKRRRLTQNDVGHPFAVAVFEDYVWFSDWAMPSVMRVNKRTGKDRVRLQGSMLKPSSLVVVHPLAKPGADPCLYQNGGCEHICKKRLGTAWCSCREGFMKASDGKTCLALDGHQLLAGGEVDLKNQVTPLDILSKTRVSEDNITESQHMLVAEIMVSDQDDCAPVGCSMYARCISEGEDATCQCLKGFAGDGKLCSDIDECEMGVPVCPPASSKCINTEGGYVCRCSEGYQGDGIHCLDIDECQLGEHSCGENASCTNTEGGYTCMCAGRLSEPGLICPDSTPPPHLREDDHHYSVRNSDSECPLSHDGYCLHDGVCMYIEALDKYACNCVVGYIGERCQYRDLKWWELRHAGHGQQQKVIVVAVCVVVLVMLLLLSLWGAHYYRTQKLLSKNPKNPYEESSRDVRSRRPADTEDGMSSCPQPWFVVIKEHQDLKNGGQPVAGEDGQAADGSMQPTSWRQEPQLCGMGTEQGCWIPVSSDKGSCPQVMERSFHMPSYGTQTLEGGVEKPHSLLSANPLWQQRALDPPHQMELTQ
- Mitogenicity [2]: 56 percentage of control (EGF)
